Source: article PMC12329711, “(Reverse) Evolution of a Promiscuous Isochorismate Pyruvate Lyase into an Efficient Chorismate Mutase” (Biochemistry, 2025)

Experiments:
Experiment in all cases: purified protein
Settings in all cases: pH 7.5; 30.0 °C
[1] = system: C=C(O[C@@H]1C=C(C(=O)O)C=C[C@H]1O)C(=O)O
[2] = system: C=C(O[C@@H]1C=C(C(=O)O)C=C[C@H]1O)C(=O)O; type: biochemical, Escherichia coli
[3] = system: C=C(O[C@H]1C=CC=C(C(=O)O)[C@@H]1O)C(=O)O

Substance | Km [1] | Km [2] | Km [3] | kcat/Km [3]
(Pseudomonas aeruginosa PAO1) | 41 ± 5 µM |  |  | 
(Escherichia coli K-12) |  | 240 µM |  | 
(Mycobacterium tuberculosis H37Rv) | 170 ± 16 µM |  | 200 ± 30 µM | 4.4 ± 0.4 M⁻¹ s⁻¹
